From patent publication US20160009772A1 (Hoffmann-La Roche, published 2016)
Like-named read-outs stand apart in the source and are kept apart here.

How the values were obtained:
[1] = target: T1, IRF5(222-467, S430D), S430D phosphomimetic construct of IRF5 (222-467) (human, UniProt Q13568-4 222-467); test: TR-FRET IRF5 dimerization inhibition, S430D (222-467), peptide titrated
T1 construct: range 222-467; Used in the dimer assay in two tagged forms at once (biotin tag and His tag); S and R stand 10 residues further (S440, R363), so the construct is probably numbered on an isoform 10 residues shorter; also called mutant S430D (222-467); biotin tag IRF5(222-467, S430D)
T1 sequence (Q13568 232-477 S440D limits assumed): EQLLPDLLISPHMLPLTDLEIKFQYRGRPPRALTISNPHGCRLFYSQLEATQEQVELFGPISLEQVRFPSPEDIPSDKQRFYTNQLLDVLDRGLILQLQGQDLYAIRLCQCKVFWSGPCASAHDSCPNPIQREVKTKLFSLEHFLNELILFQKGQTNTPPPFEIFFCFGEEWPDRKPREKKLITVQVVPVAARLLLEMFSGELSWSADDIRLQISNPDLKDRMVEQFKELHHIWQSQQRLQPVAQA

[2] = target: T1, IRF5(222-467, S430D), S430D …; test: as above; remark: listed apart in the source
Description: The samples were incubated at room temperature for 20 min. Seventeen microliters per well of detection solution containing 10 nM europium (Eu) conjugated streptavidin and 80 nM allophycocyanin (APC) conjugated anti-His antibody (Columbia Biosciences) in Assay Buffer (without DTT) were added. The samples were incubated at room temperature for 60 min followed by overnight incubation at 40 C and 30 ul per well were transferred to 384-well polystyrene plates (Matrix, Thermal Scientific) in duplicates. […] The data were processed in Excel XLfit and the IC50 values were calculated using a nonlinear curve-fitting algorithm (four parameter equation). The data represent an average of 3 independent experiments (each run in triplicates) and the reported errors represent standard deviation (s.d.).

[3] = target: T2, N-terminal His (six histadine)-tagged IRF5 (222-425) SEQ ID NO 22 (human, UniProt Q13568 222-425); test: direct binding TR-FRET, FITC peptide and Tb anti-His antibody (FIG. 2)
T2 construct: also called His tag IRF5(222-425); his-tagged IRF5 (222-425, lacking helix 5 and unable to homodimerize)
T2 sequence (Q13568 other isoform, or with tags, fused parts or gaps limits assumed): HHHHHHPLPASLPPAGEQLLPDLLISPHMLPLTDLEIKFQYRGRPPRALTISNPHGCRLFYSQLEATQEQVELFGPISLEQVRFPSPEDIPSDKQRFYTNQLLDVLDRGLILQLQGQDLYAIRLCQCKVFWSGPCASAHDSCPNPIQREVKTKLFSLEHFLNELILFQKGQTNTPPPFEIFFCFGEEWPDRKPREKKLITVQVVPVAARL
Description: Aliquots (1.6 μl per well) of 4 μM FITC peptide solution in DMSO were added into 96-well polypropylene plates (Corning). […] The samples were incubated at room temperature for 30 min. […] Samples were incubated at 4° C. for overnight and 18 μl per well were transferred to small volume 384-well polystyrene plates (Corning) in duplicates.

Row | IC50 [1] [µM] | Binder | other results
1 | 1.67 | Ac-PFPPLPIGEEAPKDDMVRFFKDLHQYLNVV-NH2 [Ac-PFPPLPIGEEAPKDDMVRFFKDLHQYLNVV-NH2 (SEQ ID NO: 10)] | –
2 | – | Ac-YLKFIPLKRAIWLIK-NH2 [Ac-YLKFIPLKRAIWLIK-NH2 (SEQ ID NO: 23), control CPP designed not to bind IRF5] | IC50 [2]: > 75 µM
3 | – | Ac-YLKFIPLKRAIWLIK-NH2 (also: FITC label, position and linker not given here, Kept apart from m13) [control FITC labeled CPP designed not to bind IRF5 (SEQ ID NO: 23)] | binding result [3]: no binding (tested: 0-10.5 uM His tag IRF5(222-425))
4 | 2.42 | Ac-IRLQISNPDLKDLMVQWFKDGGPSSGAPPPS-NH2 [Ac-IRLQISNPDLKDLMVQWFKDGGPSSGAPPPS-NH2 (SEQ ID NO: 9)] | –
